Assays:
[1] = target: human CD123 on cells (human) (UniProt P26951); assay: flow cytometry, TF-1 cells, 3 µg antibody
[2] = target: human CD123 on cells (human) (UniProt P26951); assay: flow cytometry, THP-1 cells, 3 µg antibody
[3] = target: human CD123 on cells (human) (UniProt P26951); assay: cell-based or functional assay
[4] = target: Macaca fascicularis CD3ε/δ-Fc fusion heterodimer (Macaca fascicularis) (UniProt Q95LI8); assay: SPR Biacore, Fab; unit inferred
[5] = target: Macaca fascicularis CD3ε/δ-Fc fusion heterodimer (Macaca fascicularis) (UniProt Q95LI8); assay: SPR, steady state
[6] = target: Macaca fascicularis CD3ε/δ-Fc fusion heterodimer (Macaca fascicularis) (UniProt Q95LI8); assay: SPR, cyno against human CD3ε/δ
[7] = target: Macaca fascicularis CD3ε/δ-Fc fusion heterodimer (Macaca fascicularis) (UniProt Q95LI8); assay: SPR, CD3ε/δ-Fc captured, Fab analyte

Chain of Macaca fascicularis CD3ε/δ-Fc fusion heterodimer (Macaca fascicularis) (chain, as listed by the source mutant, chain 1 of 2): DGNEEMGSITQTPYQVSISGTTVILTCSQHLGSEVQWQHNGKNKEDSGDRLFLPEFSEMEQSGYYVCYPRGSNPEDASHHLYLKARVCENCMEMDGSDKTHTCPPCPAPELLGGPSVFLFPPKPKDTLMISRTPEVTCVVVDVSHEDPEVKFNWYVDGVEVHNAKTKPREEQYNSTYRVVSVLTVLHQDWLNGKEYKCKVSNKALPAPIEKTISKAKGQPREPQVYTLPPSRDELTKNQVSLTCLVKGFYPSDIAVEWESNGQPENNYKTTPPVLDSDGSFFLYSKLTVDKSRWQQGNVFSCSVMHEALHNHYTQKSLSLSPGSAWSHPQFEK
Chain of Macaca fascicularis CD3ε/δ-Fc fusion heterodimer (Macaca fascicularis) (Q95LI8 22-105, stated change not applied, chain 2 of 2): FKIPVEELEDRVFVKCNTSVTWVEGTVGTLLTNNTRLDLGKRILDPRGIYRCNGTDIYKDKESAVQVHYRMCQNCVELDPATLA
Chain of human CD123 on cells (human) (P26951 19-378): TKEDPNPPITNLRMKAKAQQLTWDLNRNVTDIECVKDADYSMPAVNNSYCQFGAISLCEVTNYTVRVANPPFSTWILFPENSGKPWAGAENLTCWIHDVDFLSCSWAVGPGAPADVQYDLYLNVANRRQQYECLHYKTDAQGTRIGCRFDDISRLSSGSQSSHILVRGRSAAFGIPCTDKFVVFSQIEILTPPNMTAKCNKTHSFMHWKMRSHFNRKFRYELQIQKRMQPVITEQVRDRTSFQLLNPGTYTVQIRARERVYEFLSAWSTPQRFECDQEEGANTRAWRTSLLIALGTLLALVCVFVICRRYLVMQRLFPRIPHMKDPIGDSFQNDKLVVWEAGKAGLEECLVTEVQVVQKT

| Binder | % FITC positive cells [1] [%] | % FITC positive cells [2] [%] | ratio KD(cy)/KD(hu) [6] | also measured |
| --- | --- | --- | --- | --- |
| CODV-Fab BFX-3E3-D3 × CD3 (bispecific antibody, part only; not given: CD3 arm, linkers, constant domains, V domains shown, part only) VH: QVQLQESGPGLVQPSQTLSLTCTVSGFSLTTYDVHWVRQPPGKGLEWMGRIQNGGITDYNSALKSRLIISRDTSKSQVFLKMNSVQTEDTAMYFCAKTGSYFYAFDHWGQGTLVTVSS VL: QFVLTQPNSVSTNLGSTVKLSCKRNTGNIGSNYVNWYQQHEGRSPTTMIYRDDKRPDGVPDRFSGSIDRSSNSALLTINNVQTEDEADYFCQSYSSGINIIFGGGTKLTVL | 31.6 | 99 | – | EC50 cytotoxic assay (THP-1), geomean [3]: 0.0122 µg/mL |
| humanized 4B4 Fab 4B4_20 (VL2F / VH6C) (Fab, V domains shown) VH: QVQLVESGGGVVQPGRSLRLSCAASGFTFSNAWMHWVRQAPGKQLEWVAQIKARSNNYATYYADSVKGRFTISRDDSKSTLYLQMNSLRAEDTAVYYCRGTYYASKPFDYWGQGTLVTVSS VL: DIVMTQTPLSLSVTPGQPASISCKSSQSLVHDNANTYLSWYLQKPGQSPQSLIYKVSNRFSGVPDRFSGSGSGTDFTLKISRVEAEDVGVYYCGQGTQYPFTFGSGTKVEIK | – | – | – | Kd [4]: 43.4 nM |
| 12D2-E5 Fab (Fab, V domains shown) VH: EVKLVESGGGLVQPGRSLRLSCAASGFNFYAYWMGWVRQAPGKGLEWIGEIKKDGTTINYTPSLKDRFTISRDNAQNTLYLQMTKLGSEDTALYYCAREERDGYFDYWGQGVMVTVSS VL: QFVLTQPNSVSTNLGSTVKLSCKRSTGNIGSNYVNWYQQHEGRSPTTMIYRDDKRPDGVPDRFSGSIDRSSNSALLTINNVQTEDEADYFCQSYSSGIVFGGGTKLTVL | – | – | 4 | Kd [5]: 4.8 nM |
| CODV-Fab 7G3 × OKT3 (bispecific antibody, part only; not given: OKT3 variable domains, full chains, V domains shown, part only) VH: EVQLQQSGPELVKPGASVKMSCKASGYTFTDYYMKWVKQSHGKSLEWIGDIIPSNGATFYNQKFKGKATLTVDRSSSTAYMHLNSLTSEDSAVYYCTRSHLLRASWFAYWGQGTLVTVSA VL: DFVMTQSPSSLTVTAGEKVTMSCKSSQSLLNSGNQKNYLTWYLQKPGQPPKLLIYWASTRESGVPDRFTGSGSGTDFTLTISSVQAEDLAVYYCQNDYSYPYTFGGGTKLEIK | – | – | – | Activity EC50 (cytotoxic assay, THP-1 targets + primary human T cells) [3]: 0.016 µg/mL |
| humanized 4B4 Fab 4B4_17 (VL2A / VH2B) (Fab, V domains shown) VH: EVQLVETGGGLVQPGGSLKLTCATSGFTFSNAWMHWVRQSPEKGLEWVAQIKARSNNYATYYADSVKGRFTISRDDSKSTIYLQMNSLRAEDTAIYYCRGTYYASKPFDYWGQGVMVTVSS VL: DVVMTQTPVSLSVSPGGPVSISCRSSQSLVHDNGNTYLSWSLQKPGQSPQVLIYKVSNRFSGVSDRFTGSGSGTDFTLKISRVEPDDLGVYYCGQGTQYPFTFGSGTKLEIK | – | – | – | Kd [4]: 9.07 nM |
| 13H2 Fab (Fab, V domains shown) VH: EEELVETGGSLVQPGKSLKLTCATSGFTFSNAWMHWVRQSPDKQLEWVAQIKAKSNNYATYYAESVKGRFTISRDDSKSSVYLQMNNLKEEDTAIYYCRYVHYGLAPMDAWGQGTSVTVSS VL: DVVMTQTPVSLSVSLGGQVSISCRSSQSLVHNNGNTYLSWYLQKAGQSPQLLIYKVSNRFSGISDRFSGSGSGTDFILKISRVEPDDLGVFYCGQGTQYPFTFGAGTKLELK | – | – | 1 | Kd [7]: 32 nM; koff [7]: 0.0059 s⁻¹; kon [7]: 180000 M⁻¹ s⁻¹ |

More lines, main results first:

| % FITC positive cells [1] [%] | % FITC positive cells [2] [%] | ratio KD(cy)/KD(hu) [6] | Binder | also measured |
| --- | --- | --- | --- | --- |
| 31.1 | 48.8 | – | CODV-Fab BFX-9B8-G6 × CD3 (bispecific antibody, part only; not given: CD3 arm, linkers, constant domains, tag, V domains shown, not shown: another chain or arm of the molecule; a dimerising Fc or GST; small tags and cut ends) VH: EVKLQESGPSLVQSSQTLSLTCTVSGFSLTSYHIHWVRQPPGKGLEWMGVMWSDGDTSYSSALKSRLSISRDTSQSQVFLKMNSLQTEDTATYYCARGDYSSYIYLWFAYWGQGTLVTVSS VL: DIVMTQSPSSLAVSAGETVTINCKSSQSFLSSGDERNYVAWYQHKPGQSPKLLIYWASTRHSGVPDRFIGSGSGTDFTLTISSVQAEDLAIYYCQQYYDTPLTFGSGTKLEIK | – |
| 50.2 | 88.7 | – | CODV-Fab BFX-9D7-C8 × CD3 (bispecific antibody, part only; not given: CD3 arm, linkers, constant domains, tag, V domains shown, not shown: another chain or arm of the molecule; a dimerising Fc or GST; small tags and cut ends) VH: EVKLQESGPSLVQSSQTLSLTCTVSGFSLTSYHIHWVRQTPGKGLEWMGVMWSDGDTSYNSALKSRLSISRDTSQSQVFLKMNSLQTEDTATYYCARGYYSSYLYLWFAYWGQGTLVTVSS VL: DIVMTQSPSSLAVSEGETVTINCKSSQSFLSSGDGKNYVAWYQYKPGQSPKLLIYWASTRQSGVPDRFIGSGSGTDFTLTISTVQAEDLAIYYCQQYYDTPLTFGSGTKLEIK | – |
| 9.3 | 24 | – | CODV-Fab BFX-2F8-D6 × CD3 (bispecific antibody, V domains shown, not shown: a dimerising Fc or GST; small tags and cut ends) VH: QVQLKESGPGLVQPSQTLSLTCTVSGFSLTSYGVSWVRQPPGKGLEWIATISSAGSTYYDLVLKSRLSITRDTSKSQVFLKVHSLQTEDTAIYLCARDAPVFNYGSYNAMDSWGQGTSVTVSS VL: DIQMTQSPSFLSATVGDRVTINCKASQNINKYLNWYQQKLGEAPKRLIYNTNSLQTGIPSRFSGSGSGTDYTLTISSLQPEDVATYFCLQHKSGLTFGSGTKLEIK | – |
| – | – | 1 | 1E6 Fab (Fab, V domains shown) VH: EVQLVETGGSLVQPGKSLKLTCATSGFTFSYAWMHWVRQSPDKQLQWVAQIKAKSNNYATYYAESVEGRFTISRDDSKSSVYLQMNSLKEEDTAIYYCRGVYYGLLGLDAWGQGTSVTVSS VL: DVVMTQTPVSLSVRLGGQVSISCRSSQSLVHNNGNTYLSWFLQKPGQSPQLLIYKVSNRFSGISDRFSGSASGTDFTLKISRVEPDDLGVYYCGQGTHYPFTFGSGTKLEIK | Kd [7]: 42 nM; koff [7]: 0.0042 s⁻¹; kon [7]: 100000 M⁻¹ s⁻¹ |
| – | – | 1 | 5B1-G2 Fab (Fab, V domains shown) VH: EVQVVETGGSLVQPGKSLKLTCATSGFSFSNAWMHWVRQSPEKQLEWVAQIKDKANNYATYYAESVKGRFTISRDDSKGSIYLQMNSLKEEDTAVYYCRGLYYGLFPSDYWGQGVMVTVSS VL: DVVMTQTPVSLSVSLGGQVSISCRSSQSLVHNNGNTYLSWYLLKPGQSPQLLIYKVSNRFSGISDRFSGGGSGTDFTLKISRLEPDDLGIYYCGQGTQYPFTFGSGTKLEIK | Kd [7]: 4.3 nM; koff [7]: 0.00015 s⁻¹; kon [7]: 34000 M⁻¹ s⁻¹ |
| 60.7 | 99.7 | – | CODV-Fab BFX-9F6-G3 × CD3 (bispecific antibody, part only; not given: CD3 arm, linkers, constant domains, tag, V domains shown, not shown: another chain or arm of the molecule; a dimerising Fc or GST; small tags and cut ends) VH: QVQLQESGPTLVKPGDSVKMSCKASGYTFTDYIIHWVKQSHGKSLEWIGYINPYSDGTNYNEKFKSKATLTVDKSTSTAYMEFSRLTSEDSAIYFCALNYGSYYAMDAWGQGTSVTVSS VL: DIQMTQSPASLSASLGETVTIECRPSEDIHSNVAWYQQKPGNSPQLLIYDASNLADGVPSRFSGSGSGTQYSLKINSLQSEDVASYFCHQYNIYPYTFGSGTKLELK | – |
